Results: US20220332804A1 (CSL INNOVATION, published 2022)
Where a chain is given by its changes, count along the chain named.

Assays:
Assay in all cases: SPR, KD relative to WT C2;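 note: biacore SPR at 37 °C, anti-C2 mAbs captured on anti-human IgG chips with alanine or serine point mutants of C2 as analyte, KD from 1:1 fit compared with wild-type C2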
human C2 R688A = biological target: T1, human C2 R688A (human, UniProt P06681 21-752)
T1 sequence: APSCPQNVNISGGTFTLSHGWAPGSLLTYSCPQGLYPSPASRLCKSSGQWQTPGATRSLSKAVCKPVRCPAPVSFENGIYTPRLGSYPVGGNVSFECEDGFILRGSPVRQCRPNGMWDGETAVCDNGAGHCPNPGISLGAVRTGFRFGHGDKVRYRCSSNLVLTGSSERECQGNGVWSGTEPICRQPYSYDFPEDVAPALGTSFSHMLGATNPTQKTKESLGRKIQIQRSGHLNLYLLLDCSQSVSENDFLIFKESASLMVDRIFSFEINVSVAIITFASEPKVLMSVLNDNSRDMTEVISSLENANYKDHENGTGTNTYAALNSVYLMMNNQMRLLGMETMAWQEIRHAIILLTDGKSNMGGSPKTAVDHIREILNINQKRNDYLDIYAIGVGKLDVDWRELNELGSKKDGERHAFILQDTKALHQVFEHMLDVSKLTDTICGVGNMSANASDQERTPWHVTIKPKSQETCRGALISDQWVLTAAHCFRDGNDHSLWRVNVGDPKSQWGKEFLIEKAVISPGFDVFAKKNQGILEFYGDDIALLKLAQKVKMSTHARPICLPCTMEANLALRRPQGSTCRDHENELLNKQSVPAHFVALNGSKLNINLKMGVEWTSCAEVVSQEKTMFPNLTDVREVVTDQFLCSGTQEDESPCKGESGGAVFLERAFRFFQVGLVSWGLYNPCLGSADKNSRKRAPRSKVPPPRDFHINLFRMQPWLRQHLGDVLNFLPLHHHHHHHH

human C2 A470S = biological target: T2, human C2 A470S (human, UniProt P06681 21-752)
T2 sequence: T1 sequence with A450S, A668R

human C2 T442A = biological target: T3, human C2 T442A (human, UniProt P06681 21-752)
T3 sequence: T1 sequence with T422A, A668R

human C2 S469A = biological target: T4, human C2 S469A (human, UniProt P06681 21-752)
T4 sequence: T1 sequence with S449A, A668R

B1: RF16-242 (antibody, human IgG4 S228P, lambda, V domains shown)
VH: EVQLLQSGAEVKKPGESLKISCKGSGYSFTSYWIGWVRQMPGKGLEWMGIIYPGDSDTRYSPSFQGQVTISADKSISTAYLQWSSLKASDTAMYYCARRGHYGDYFDYWGQGTLVTVSS
VL: SYELTQPPSVSVSPGQTARITCSGDALPKKYAYWYHQKSGQAPVLVIYEDRRRPSEIPERFSGSSSGTMATLTITGAQVEDEGVYFCYSRDRAGNQRVFGGGTQLTVLG
notes: pH-dependent anti-C2 antibody from a phage display library
B1 was tested, and the Fold diff (human C2 R688A) was 2 fold, the Fold diff (human C2 A470S) was 1 fold and the Fold diff (human C2 T442A) was 3 fold. The Fold diff (human C2 S469A) was 3 fold.
